In patent US20160237160A1 (Bayer, published 2016):

How the values were obtained:
Assay in all cases: ELISA, Fc fusion protein coated at 1 µg/ml, TPP-2090 at 75 nM, Amplex Red;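 also: binding reported as ELISA signal intensity in Rfu against a panel of TNF receptor superfamily members presented as Fc fusion proteins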
[1] = target: T1, Trail-R1 (TNFRSF10A) Fc fusion protein (Human, UniProt O00220 24-239)
T1 construct: extracellular domain; bought
Source text: (§1) Shown is the result of an ELISA: Y is “ELISA signal intensity [Rfu]”; X are “TNF receptor superfamily proteins tested (Fc-fusion proteins)”: 1 is “TWEAKR”; 2 is “TWEAKR”; 3 is “Apo-3”; 4 is “Trail-R1”; 5 is “Trail-R2”; 6 is “CD385”; 7 is “CD95”; 8 is “Rank”; 9 is “TNF-R1”; 10 is “TNF-R2”; 11 is “BAFF-R”; 12 is “DcR3”; 13 is “BCMA”; 14 is “TACI”; 15 is “OX40”; 16 is “CD30”; 17 is “CD27”; 18 is “CD40”; 19 is “Osteoprotegerin”; 20 is “EDAR”; 21 is “GITR”; 22 is “HVEM”; 23 is “NGF R”; 24 is “Trail R3”; 25 is “Lymphotioxin B R”; 26 is “Trail R4”; 27 is “EDA2R”; 28 is “TROY”; 29 is “RELT”; 30 is “4-1BB”.
(§2) To collect dose-response data a serial 3fold dilution of biotinylated IgG starting with a concentration of 2 μM was used as soluble binding partner. Detection was done with anti-hIgG1-HRP and Amplex Red.

[2] = target: T2, 4-1BB (TNFRSF9) Fc fusion protein (Human, UniProt Q07011 24-186)
T2 construct: extracellular domain; bought
Source text: as §1, §2

EDAR Fc fusion protein = target: T3, EDAR Fc fusion protein (Human, UniProt Q9UNE0 27-187)
T3 construct: extracellular domain; bought
T3 sequence (looked up): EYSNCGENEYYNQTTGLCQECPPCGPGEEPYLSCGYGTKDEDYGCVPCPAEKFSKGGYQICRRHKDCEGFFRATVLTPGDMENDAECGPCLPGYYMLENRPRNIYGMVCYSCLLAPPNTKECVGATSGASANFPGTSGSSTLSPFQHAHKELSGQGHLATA
Source text: as §1, §2

[3] = target: T4, BCMA (TNFRSF17) Fc fusion protein (Human, UniProt Q02223 1-54)
T4 construct: extracellular domain; bought
T4 sequence (looked up): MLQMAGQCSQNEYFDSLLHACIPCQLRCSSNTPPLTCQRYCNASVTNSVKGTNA
Source text: as §1, §2

[4] = target: T5, GITR (TNFRSF18) Fc fusion protein (Human, UniProt Q9Y5U5 26-162)
T5 construct: extracellular domain; bought
T5 sequence (looked up): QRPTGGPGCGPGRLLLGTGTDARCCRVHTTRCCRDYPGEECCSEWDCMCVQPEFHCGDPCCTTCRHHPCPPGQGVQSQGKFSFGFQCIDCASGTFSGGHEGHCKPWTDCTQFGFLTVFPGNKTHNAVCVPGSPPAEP
Source text: as §1, §2

[5] = target: T6, NGF R (TNFRSF16) Fc fusion protein (Human, UniProt P08138 29-250)
T6 construct: extracellular domain; bought
T6 sequence (looked up): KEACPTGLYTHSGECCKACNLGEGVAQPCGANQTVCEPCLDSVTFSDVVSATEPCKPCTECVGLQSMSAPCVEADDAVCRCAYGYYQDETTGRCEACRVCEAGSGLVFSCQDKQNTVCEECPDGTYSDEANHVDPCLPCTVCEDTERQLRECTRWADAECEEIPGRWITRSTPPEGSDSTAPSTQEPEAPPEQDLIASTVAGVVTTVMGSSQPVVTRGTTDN
Source text: as §1, §2

[6] = target: T7, DcR3 (TNFRSF6B) Fc fusion protein (Human, UniProt O95407 30-300)
T7 construct: extracellular domain; bought
T7 sequence (looked up): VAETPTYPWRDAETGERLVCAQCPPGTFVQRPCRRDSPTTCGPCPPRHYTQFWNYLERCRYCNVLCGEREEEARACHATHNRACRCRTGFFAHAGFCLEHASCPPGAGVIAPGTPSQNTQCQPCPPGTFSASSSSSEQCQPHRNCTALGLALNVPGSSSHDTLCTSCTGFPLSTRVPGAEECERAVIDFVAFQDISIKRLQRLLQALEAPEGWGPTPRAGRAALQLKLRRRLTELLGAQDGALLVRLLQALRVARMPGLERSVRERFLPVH
Source text: as §1, §2

[7] = target: T8, CD95 (TNFRSF6) Fc fusion protein (Human, UniProt P25445 26-173)
T8 construct: extracellular domain; bought
T8 sequence (looked up): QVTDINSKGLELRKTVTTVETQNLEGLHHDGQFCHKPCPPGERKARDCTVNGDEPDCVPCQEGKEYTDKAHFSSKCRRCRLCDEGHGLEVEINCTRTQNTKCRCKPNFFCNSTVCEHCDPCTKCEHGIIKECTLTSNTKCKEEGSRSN
Source text: as §1, §2

[8] = target: T9, Trail R3 (TNFRSF10C) Fc fusion protein (Human, UniProt O14798 26-221, limits assumed)
T9 construct: extracellular domain; bought
T9 sequence (looked up): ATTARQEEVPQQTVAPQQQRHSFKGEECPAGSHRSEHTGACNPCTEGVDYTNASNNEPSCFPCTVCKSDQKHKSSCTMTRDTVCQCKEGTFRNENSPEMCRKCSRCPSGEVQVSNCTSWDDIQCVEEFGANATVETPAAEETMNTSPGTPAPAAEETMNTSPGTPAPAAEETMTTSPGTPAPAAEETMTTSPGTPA
Source text: as §1, §2

[9] = target: T10, Lymphotioxin β R Fc fusion protein (Human, UniProt P36941 31-227)
T10 construct: extracellular domain; bought; also called Lymphotioxin B R
Source text: as §1, §2

[10] = target: T11, Apo-3 (TNFRSF25) Fc fusion protein (Human, UniProt Q93038 25-199)
T11 construct: extracellular domain; bought
T11 sequence (looked up): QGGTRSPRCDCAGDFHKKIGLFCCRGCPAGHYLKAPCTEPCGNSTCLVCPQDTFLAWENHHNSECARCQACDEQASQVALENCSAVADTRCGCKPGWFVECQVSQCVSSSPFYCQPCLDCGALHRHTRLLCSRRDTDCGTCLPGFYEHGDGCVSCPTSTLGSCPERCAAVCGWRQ
Source text: as §1, §2

[11] = target: T12, CD40 (TNFRSF5) Fc fusion protein (Human, UniProt P25942 21-193)
T12 construct: extracellular domain; bought
T12 sequence (P25942 21-193): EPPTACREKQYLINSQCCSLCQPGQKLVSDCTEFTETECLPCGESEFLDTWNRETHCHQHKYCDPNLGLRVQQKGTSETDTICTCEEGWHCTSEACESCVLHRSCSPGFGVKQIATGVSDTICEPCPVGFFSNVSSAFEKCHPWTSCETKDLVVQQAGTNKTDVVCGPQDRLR
Source text: as §1, §2

T1 sequence (O00220 24-239): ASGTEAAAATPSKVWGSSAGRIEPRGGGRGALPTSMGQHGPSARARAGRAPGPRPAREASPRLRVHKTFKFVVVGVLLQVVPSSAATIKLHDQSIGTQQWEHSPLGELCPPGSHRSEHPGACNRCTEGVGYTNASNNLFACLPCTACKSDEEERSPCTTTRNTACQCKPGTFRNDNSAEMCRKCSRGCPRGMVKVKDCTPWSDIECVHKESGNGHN
T2 sequence (Q07011 24-186): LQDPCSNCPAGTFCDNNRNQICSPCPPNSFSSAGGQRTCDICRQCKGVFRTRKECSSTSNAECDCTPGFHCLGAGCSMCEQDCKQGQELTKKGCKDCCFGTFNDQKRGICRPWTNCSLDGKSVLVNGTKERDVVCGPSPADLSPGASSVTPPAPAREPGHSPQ
T10 sequence (P36941 31-227): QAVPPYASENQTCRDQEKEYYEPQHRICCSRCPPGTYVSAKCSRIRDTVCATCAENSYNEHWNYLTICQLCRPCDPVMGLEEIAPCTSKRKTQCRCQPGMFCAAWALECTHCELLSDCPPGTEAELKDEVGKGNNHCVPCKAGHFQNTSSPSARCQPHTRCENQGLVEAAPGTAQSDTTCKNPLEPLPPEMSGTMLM

- binding result [1]: no binding (tested: 75 nM)
- binding result [2]: no binding (tested: 75 nM)
- binding result (EDAR Fc fusion protein): no binding (tested: 75 nM)
- binding result [3]: no binding (tested: 75 nM)
- binding result [4]: no binding (tested: 75 nM)
- binding result [5]: no binding (tested: 75 nM)
- binding result [6]: no binding (tested: 75 nM)
- binding result [7]: no binding (tested: 75 nM)
- binding result [8]: no binding (tested: 75 nM)
- binding result [9]: no binding (tested: 75 nM)
- binding result [10]: no binding (tested: 75 nM)
- binding result [11]: no binding (tested: 75 nM)
B1: TPP-2090 (antibody, human IgG1, kappa, V domains shown)
VH: EVQLLESGGGLVQPGGSLRLSCAASGFTFSPYPMIWVRQAPGKGLEWVSYISPSGGSTHYADSVKGRFTISRDNSKNTLYLQMNSLRAEDTAVYYCARGGDTYFDYFDYWGQGTLVTVSS
VL: DIQMTQSPSSLSASVGDRVTITCRASQSISGYLNWYQQKPGKAPKLLIYQASSLQSGVPSRFSGSGSGTDFTLTISSLQPEDFATYYCQQSYTSPFITFGQGTKVEIKR
notes: Human IgG1
